First the molecules themselves.
T1: Human CD3eg linker (human)
T1 construct: Single-chain construct; also called recombinant human CD3
T1 chain: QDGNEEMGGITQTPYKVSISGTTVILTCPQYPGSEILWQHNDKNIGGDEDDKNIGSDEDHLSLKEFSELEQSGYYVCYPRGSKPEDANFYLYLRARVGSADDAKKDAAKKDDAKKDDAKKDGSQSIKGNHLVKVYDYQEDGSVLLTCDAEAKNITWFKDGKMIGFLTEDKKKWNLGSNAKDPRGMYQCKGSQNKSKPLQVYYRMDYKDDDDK

B1: H183/L072 VL E27aQ (antibody, name in Kabat numbering, V domains shown)
VH: QVQLVESGGGLVQPGRSLRLSCAASGFTFSNAWMHWVRQAPGKGLEWVAQIKDKGNAYAAYYAPSVKGRFTISRDDSKNSIYLQMNSLKTEDTAVYYCHYVHYASASTVLPAFGVDAWGQGTTVTVSS
VL: DIVMTQSPLSLPVTPGEPASISCQASQQLVHMNRNTYLHWYQQKPGQAPRLLIYKVSNRFPGVPDRFSGSGSGTDFTLKISRVEAEDVGVYYCAQGTSVPFTFGQGTKLEIK
B2: H183/L072 VL F55N (antibody, name in Kabat numbering, V domains shown)
VH: B1 VH
VL: B1 VL with Q28E, F60N
B3: H183/L072 VL G91S (antibody, name in Kabat numbering, V domains shown)
VH: B1 VH
VL: B1 VL with Q28E, G96S
B4: H183/L072 VL F55T (antibody, name in Kabat numbering, V domains shown)
VH: B1 VH
VL: B1 VL with Q28E, F60T
B5: H183/L072 VL F55K (antibody, name in Kabat numbering, V domains shown)
VH: B1 VH
VL: B1 VL with Q28E, F60K
B6: H183/L072 VL F96Q (antibody, name in Kabat numbering, V domains shown)
VH: B1 VH
VL: B1 VL with Q28E, F101Q
B7: H183/L072 VL F55G (antibody, name in Kabat numbering, V domains shown)
VH: B1 VH
VL: B1 VL with Q28E, F60G
B8: H183/L072 VL F55W (antibody, name in Kabat numbering, V domains shown)
VH: B1 VH
VL: B1 VL with Q28E, F60W
B9: H183/L072 VL G91H (antibody, name in Kabat numbering, V domains shown)
VH: B1 VH
VL: B1 VL with Q28E, G96H
B10: H183/L072 VL H27dD (antibody, name in Kabat numbering, V domains shown)
VH: B1 VH
VL: B1 VL with Q28E, H31D
B11: H183/L072 VL H27dF (antibody, name in Kabat numbering, V domains shown)
VH: B1 VH
VL: B1 VL with Q28E, H31F
B12: H183/L072 VL G91K (antibody, name in Kabat numbering, V domains shown)
VH: B1 VH
VL: B1 VL with Q28E, G96K
B13: H183/L072 VL E27aW (antibody, name in Kabat numbering, V domains shown)
VH: B1 VH
VL: B1 VL with Q28W
B14: H183/L072 VL F96S (antibody, name in Kabat numbering, V domains shown)
VH: B1 VH
VL: B1 VL with Q28E, F101S
B15: H183/L072 VL F55L (antibody, name in Kabat numbering, V domains shown)
VH: B1 VH
VL: B1 VL with Q28E, F60L
B16: H183/L072 VL E27aR (antibody, name in Kabat numbering, V domains shown)
VH: B1 VH
VL: B1 VL with Q28R
B17: H183/L072 VL F55A (antibody, name in Kabat numbering, V domains shown)
VH: B1 VH
VL: B1 VL with Q28E, F60A
B18: H183/L072 VL F55P (antibody, name in Kabat numbering, V domains shown)
VH: B1 VH
VL: B1 VL with Q28E, F60P
B19: H183/L072 VL F55H (antibody, name in Kabat numbering, V domains shown)
VH: B1 VH
VL: B1 VL with Q28E, F60H
B20: H183/L072 VL F55S (antibody, name in Kabat numbering, V domains shown)
VH: B1 VH
VL: B1 VL with Q28E, F60S
B21: H183/L072 VL F55I (antibody, name in Kabat numbering, V domains shown)
VH: B1 VH
VL: B1 VL with Q28E, F60I
B22: H183/L072 VL G91E (antibody, name in Kabat numbering, V domains shown)
VH: B1 VH
VL: B1 VL with Q28E, G96E
B23: H183/L072 VL F55E (antibody, name in Kabat numbering, V domains shown)
VH: B1 VH
VL: B1 VL with Q28E, F60E
B24: H183/L072 VL F96T (antibody, name in Kabat numbering, V domains shown)
VH: B1 VH
VL: B1 VL with Q28E, F101T
B25: H183/L072 VL F96H (antibody, name in Kabat numbering, V domains shown)
VH: B1 VH
VL: B1 VL with Q28E, F101H
B26: H183/L072 VL F96E (antibody, name in Kabat numbering, V domains shown)
VH: B1 VH
VL: B1 VL with Q28E, F101E
B27: H183/L072 VL E27aV (antibody, name in Kabat numbering, V domains shown)
VH: B1 VH
VL: B1 VL with Q28V
B28: H183/L072 VL H27dG (antibody, name in Kabat numbering, V domains shown)
VH: B1 VH
VL: B1 VL with Q28E, H31G
B29: H183/L072 VL H27dE (antibody, name in Kabat numbering, V domains shown)
VH: B1 VH
VL: B1 VL with Q28E, H31E
B30: H183/L072 VL F55Q (antibody, name in Kabat numbering, V domains shown)
VH: B1 VH
VL: B1 VL with Q28E, F60Q
B31: H183/L072 VL F55M (antibody, name in Kabat numbering, V domains shown)
VH: B1 VH
VL: B1 VL with Q28E, F60M
B32: H183/L072 VL G91D (antibody, name in Kabat numbering, V domains shown)
VH: B1 VH
VL: B1 VL with Q28E, G96D
B33: H183/L072 VL G91T (antibody, name in Kabat numbering, V domains shown)
VH: B1 VH
VL: B1 VL with Q28E, G96T
B34: H183/L072 VL F55V (antibody, name in Kabat numbering, V domains shown)
VH: B1 VH
VL: B1 VL with Q28E, F60V
B35: H183/L072 VL E27aS (antibody, name in Kabat numbering, V domains shown)
VH: B1 VH
VL: B1 VL with Q28S
B36: H183/L072 VL E27aT (antibody, name in Kabat numbering, V domains shown)
VH: B1 VH
VL: B1 VL with Q28T
B37: H183/L072 VL F96K (antibody, name in Kabat numbering, V domains shown)
VH: B1 VH
VL: B1 VL with Q28E, F101K
B38: H183/L072 VL F96D (antibody, name in Kabat numbering, V domains shown)
VH: B1 VH
VL: B1 VL with Q28E, F101D
B39: H183/L072 VL G91Q (antibody, name in Kabat numbering, V domains shown)
VH: B1 VH
VL: B1 VL with Q28E, G96Q
B40: H183/L072 VL E27aY (antibody, name in Kabat numbering, V domains shown)
VH: B1 VH
VL: B1 VL with Q28Y
B41: H183/L072 VL F55R (antibody, name in Kabat numbering, V domains shown)
VH: B1 VH
VL: B1 VL with Q28E, F60R
B42: H183/L072 VL F55D (antibody, name in Kabat numbering, V domains shown)
VH: B1 VH
VL: B1 VL with Q28E, F60D

Experimental findings from patent US20210388087A1 (Chugai, published 2021) are described below.

Residue numbers refer to the chain shown, from its start. In names and notes the source's numbering stands.

This test deals with T1, Human CD3eg linker. Put plainly: SPR; fold vs parent H183/L072.
In the case of B1, the “fold change of affinity” value was 1.2 fold.
For B2, the “fold change of affinity” value amounted to 3.9 fold.
Regarding B3, the “fold change of affinity” value turned out to be 0 fold.
Take B4: the “fold change of affinity” value turned out to be 4.2 fold.
Turning to B5, the “fold change of affinity” value was 8.3 fold.
The figure for B6 is 0 fold; for B7 it is 8.1 fold.
In the case of B8, the “fold change of affinity” value came to 0.2 fold.
B9: the “fold change of affinity” value stood at 0 fold.
In the case of B10, the “fold change of affinity” value is 0 fold.
As to B11, the “fold change of affinity” value is 0.2 fold.
For B12, the “fold change of affinity” value worked out at 0 fold.
With B13, the “fold change of affinity” value is 1.1 fold.
The figure for B14 is 0 fold; for B15 it is 2.9 fold.
In the case of B16, the “fold change of affinity” value came to 1.2 fold.
For B17, the “fold change of affinity” value turned out to be 7.2 fold.
In the case of B18, the “fold change of affinity” value worked out at 8.1 fold.
Turning to B19, the “fold change of affinity” value is 7.4 fold.
The figure for B20 is 6.6 fold.
Regarding B21, the “fold change of affinity” value is 3.4 fold.
In the case of B22, the “fold change of affinity” value turned out to be 0 fold.
The figure for B23 is 3.4 fold; for B24 it is 0 fold; for B25 it is 0 fold.
For the molecule B26, the “fold change of affinity” value is 0 fold.
On to B27, for which the “fold change of affinity” value is 1 fold.
As for B28, the figure is 0 fold.
As for B29, the “fold change of affinity” value is 0 fold.
Take B30: the “fold change of affinity” value is 2.9 fold.
Consider B31, for which the “fold change of affinity” value amounted to 3.6 fold.
B32: the “fold change of affinity” value was 0 fold.
The figure for B33 is 0 fold.
Turning to B34, the “fold change of affinity” value was determined as 4.4 fold.
With B35, the “fold change of affinity” value stood at 1.3 fold.
As for B36, the figure is 1.3 fold.
In the case of B37, the “fold change of affinity” value came out at 0 fold.
Consider B38, for which the “fold change of affinity” value came out at 0 fold.
As to B39, the “fold change of affinity” value was determined as 0 fold.
Regarding B40, the “fold change of affinity” value worked out at 1.2 fold.
As for B41, the figure is 4 fold.
B42: the “fold change of affinity” value is 6.1 fold.
